Test results as given in article PMC10403363, “Mechanism of ribosome-associated mRNA degradation during tubulin autoregulation” (Molecular Cell, 2023).

What was measured:
[1] = target: T1, human SCAPER-FLAG (recombinant, purified) (human, UniProt Q9BY12 1-1400); assay: pull-down; 100 nM SCAPER-FLAG and 150 nM Strep-TTC5 in IP buffer (50 mM HEPES pH 7.4, 100 mM KAc, 5 mM MgAc2, 1 mM DTT, 0.01% digitonin), 4°C; Streptactin magnetic beads; Coomassie; conditions: both partners purified
T1 construct: SCAPER, human cDNA from Genscript; construct names (aa351-1400) imply 1400 residues; also called S-phase cyclin A associated protein residing in the ER; source: Expi293 cells, transfected, purified (anti-FLAG resin, 3xFLAG peptide elution); not shown: FLAG, C-terminal, kept
T1 sequence: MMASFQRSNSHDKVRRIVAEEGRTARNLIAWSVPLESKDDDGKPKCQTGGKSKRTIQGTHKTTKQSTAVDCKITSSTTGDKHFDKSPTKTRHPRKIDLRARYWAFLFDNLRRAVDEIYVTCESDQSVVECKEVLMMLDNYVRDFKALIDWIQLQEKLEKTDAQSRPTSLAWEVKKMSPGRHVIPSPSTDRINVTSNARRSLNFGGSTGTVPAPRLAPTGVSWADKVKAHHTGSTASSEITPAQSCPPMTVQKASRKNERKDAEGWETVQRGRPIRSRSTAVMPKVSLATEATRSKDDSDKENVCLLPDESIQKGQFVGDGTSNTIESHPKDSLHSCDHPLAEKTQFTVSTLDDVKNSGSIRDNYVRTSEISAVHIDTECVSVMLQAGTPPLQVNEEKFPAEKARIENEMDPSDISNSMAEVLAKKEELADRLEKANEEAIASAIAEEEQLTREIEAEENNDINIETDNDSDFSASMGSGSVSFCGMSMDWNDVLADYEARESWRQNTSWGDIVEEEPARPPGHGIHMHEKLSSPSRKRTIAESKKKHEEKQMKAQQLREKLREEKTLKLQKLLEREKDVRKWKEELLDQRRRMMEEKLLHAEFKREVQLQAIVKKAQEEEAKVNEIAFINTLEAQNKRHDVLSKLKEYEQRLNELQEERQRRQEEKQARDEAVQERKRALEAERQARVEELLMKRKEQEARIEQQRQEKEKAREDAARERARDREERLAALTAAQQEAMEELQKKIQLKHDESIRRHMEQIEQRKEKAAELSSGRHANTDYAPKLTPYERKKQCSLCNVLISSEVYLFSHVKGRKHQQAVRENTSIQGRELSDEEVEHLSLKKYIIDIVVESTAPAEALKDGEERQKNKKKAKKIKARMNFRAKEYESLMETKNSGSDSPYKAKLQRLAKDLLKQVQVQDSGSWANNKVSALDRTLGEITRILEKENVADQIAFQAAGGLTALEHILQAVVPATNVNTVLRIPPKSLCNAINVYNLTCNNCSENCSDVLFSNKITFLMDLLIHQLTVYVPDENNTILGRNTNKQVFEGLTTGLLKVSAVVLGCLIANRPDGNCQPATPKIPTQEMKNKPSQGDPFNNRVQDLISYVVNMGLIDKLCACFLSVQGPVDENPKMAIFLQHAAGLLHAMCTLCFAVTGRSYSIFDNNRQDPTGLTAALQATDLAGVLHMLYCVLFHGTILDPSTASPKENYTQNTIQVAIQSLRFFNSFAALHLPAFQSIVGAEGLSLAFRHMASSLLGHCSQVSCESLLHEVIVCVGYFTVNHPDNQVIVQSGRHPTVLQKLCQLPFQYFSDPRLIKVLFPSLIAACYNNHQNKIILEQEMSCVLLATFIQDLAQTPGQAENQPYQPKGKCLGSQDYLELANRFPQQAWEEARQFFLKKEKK

[2] = target: T2, human FLAG-SCAPER (recombinant, purified) (human, UniProt Q9BY12 1-1400); assay: cryo-EM structure; β-tubulin RNCs from rabbit reticulocyte lysate with recombinant Strep-TTC5 and FLAG-SCAPER, affinity purified via TTC5; SCAPER with TTC5; conditions: both partners purified
T2 construct: SCAPER, human cDNA from Genscript recloned with an N-terminal FLAG tag; construct names (aa351-1400) imply 1400 residues; In the cryo-EM map only the part from residue 859 on (CTD) was resolved; also called recombinant SCAPER; source: Expi293 cells, transfected, purified (anti-FLAG resin, 3xFLAG peptide elution); not shown: FLAG, N-terminal, kept
T2 sequence: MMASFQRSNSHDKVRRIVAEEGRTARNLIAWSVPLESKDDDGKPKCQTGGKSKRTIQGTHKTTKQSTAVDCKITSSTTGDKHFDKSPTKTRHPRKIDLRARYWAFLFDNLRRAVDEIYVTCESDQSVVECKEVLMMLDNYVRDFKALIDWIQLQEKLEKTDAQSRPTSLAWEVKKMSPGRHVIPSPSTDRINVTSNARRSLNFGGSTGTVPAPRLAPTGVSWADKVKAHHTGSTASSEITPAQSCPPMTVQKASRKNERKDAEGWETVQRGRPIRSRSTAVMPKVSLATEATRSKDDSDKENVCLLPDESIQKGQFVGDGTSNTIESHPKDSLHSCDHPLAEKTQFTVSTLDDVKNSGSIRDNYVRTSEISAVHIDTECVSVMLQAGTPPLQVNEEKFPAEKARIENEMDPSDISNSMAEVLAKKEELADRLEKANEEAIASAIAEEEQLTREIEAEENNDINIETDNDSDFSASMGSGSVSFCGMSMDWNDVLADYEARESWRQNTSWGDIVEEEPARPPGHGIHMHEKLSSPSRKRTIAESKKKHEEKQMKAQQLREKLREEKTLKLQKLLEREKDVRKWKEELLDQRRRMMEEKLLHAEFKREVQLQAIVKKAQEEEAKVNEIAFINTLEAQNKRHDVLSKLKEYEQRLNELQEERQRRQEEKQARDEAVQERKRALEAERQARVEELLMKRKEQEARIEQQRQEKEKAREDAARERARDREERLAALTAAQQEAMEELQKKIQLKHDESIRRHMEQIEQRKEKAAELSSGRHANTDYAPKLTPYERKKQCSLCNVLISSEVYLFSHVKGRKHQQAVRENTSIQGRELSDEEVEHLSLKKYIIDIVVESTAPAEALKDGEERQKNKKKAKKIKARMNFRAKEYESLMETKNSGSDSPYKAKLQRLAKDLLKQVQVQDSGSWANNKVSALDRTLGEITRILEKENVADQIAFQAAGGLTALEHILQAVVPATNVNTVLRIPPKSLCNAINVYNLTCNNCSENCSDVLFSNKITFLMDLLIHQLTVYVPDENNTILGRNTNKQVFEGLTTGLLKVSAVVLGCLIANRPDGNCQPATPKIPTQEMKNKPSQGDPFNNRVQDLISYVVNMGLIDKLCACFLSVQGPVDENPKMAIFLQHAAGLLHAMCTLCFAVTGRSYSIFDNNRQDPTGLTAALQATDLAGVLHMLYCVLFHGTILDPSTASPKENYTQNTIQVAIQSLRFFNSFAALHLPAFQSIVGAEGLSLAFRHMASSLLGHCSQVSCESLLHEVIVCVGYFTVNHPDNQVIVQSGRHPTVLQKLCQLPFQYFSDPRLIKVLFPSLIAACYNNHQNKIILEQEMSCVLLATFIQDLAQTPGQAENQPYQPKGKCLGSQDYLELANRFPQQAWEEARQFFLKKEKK

binding result [1]: binds | binding result [2]: binds
B1: human 6xHis-TEV-Twin-Strep-TTC5 (natural protein)
chain: MMADEEEEVKPILQKLQELVDQLYSFRDCYFETHSVEDAGRKQQDVQKEMEKTLQQMEEVVGSVQGKAQVLMLTGKALNVTPDYSPKAEELLSKAVKLEPELVEAWNQLGEVYWKKGDVAAAHTCFSGALTHCRNKVSLQNLSMVLRQLRTDTEDEHSHHVMDSVRQAKLAVQMDVHDGRSWYILGNSYLSLYFSTGQNPKISQQALSAYAQAEKVDRKASSNPDLHLNRATLHKYEESYGEALEGFSRAAALDPAWPEPRQREQQLLEFLDRLTSLLESKGKVKTKKLQSMLGSLRPAHLGPCSDGHYQSASGQKVTLELKPLSTLQPGVNSGAVILGKVVFSLTTEEKVPFTFGLVDSDGPCYAVMVYNIVQSWGVLIGDSVAIPEPNLRLHRIQHKGKDYSFSSVRVETPLLLVVNGKPQGSSSQAVATVASRPQCE
notes: tetratricopeptide repeat protein 5 (TTC5), human; TEV site between the 6xHis and the Twin-Strep tag; also called tetratricopeptide repeat protein 5; source: E. coli BL21(DE3), purified (Ni-NTA, Streptactin Sepharose); not shown: Twin-Strep, N-terminal, kept
